This is an account of results in paper PMC7821230.

The assay concerns the target BCL‐xL (UniProt Q07817). Nature of the assay: crystal structure; co-crystals of Affimer and target, solved by molecular replacement with Phaser.

Take “BCL‐xL (from UniProt Q07817-1 1-233) (natural protein)”: the stoichiometry N (as a rule, the number of molecules, sites or subunits per partner or assembly) worked out at 2.
